This note sets out measurements from publication PMC8584998, “Arabidopsis FHY3 and FAR1 Function in Age Gating of Leaf Senescence”.

The data set has as its target T1, MBP-EIN3N (UniProt O24606 141-352).
T1 sequence: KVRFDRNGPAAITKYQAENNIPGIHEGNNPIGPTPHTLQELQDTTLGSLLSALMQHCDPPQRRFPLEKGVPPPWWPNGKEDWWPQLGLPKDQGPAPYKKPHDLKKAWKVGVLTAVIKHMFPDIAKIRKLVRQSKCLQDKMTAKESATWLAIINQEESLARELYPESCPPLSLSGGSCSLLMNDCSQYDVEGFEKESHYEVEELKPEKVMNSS
In words: EMSA; LightShift Chemiluminescent EMSA kit (Pierce), 10 min at room temperature, 6% native polyacrylamide gel; buffer, salt and pH not stated. Particulars: protein: recombinant; tags: MBP; chain copies: 2; label: biotin; blunt. A general note: Mobility shift assays separate free from complexed probe on a gel.

B1: ORE1 EBS (dsDNA)
DNA 1: ATACTTTACAAGGTTCATGCATGCATAC
DNA 2: GTATGCATGCATGAACCTTGTAAAGTAT
As for B1, the binding result was “binds”.
